Experimental data as given in patent US20240010753A1 (EPIMAB BIOTHERAPEUTICS HK, published 2024).

What follows are binders tested against T1, recombinant human ROR1-ECD protein (human, UniProt Q01973 30-406) (assay: BLI (Octet RED96), FIT-Ig captured on anti-hIgG Fc sensors, ROR1 ECD at 10 ug/ml; off-rate relative to FIT1007-12B).
T1 construct: also called human ROR1 extracellular domain
Experimental: The ROR1/CD3 FIT-Ig proteins were assayed for and ranked by dissociation rate constant (koff, “off-rate”) using an Octet®RED96 biolayer interferometry (Pall FortéBio LLC). Anti-hIgG Fc Capture (AHC) Biosensors (Pall) were first exposed to antibody at a concentration of 100 nM for 30 seconds to capture antibody, then dipped into running buffer (1× pH 7.2 PBS, 0.05% Tween 20, 0.1% BSA) for 60 seconds to check baseline. Sensors with captured antibody were dipped into recombinant human ROR1 ECD protein at 10 ug/ml for 5 minutes to measure association, followed by dipped into running buffer for 1200 seconds to measure dissociation. The association and dissociation curves were fitted to a 1:1 Langmuir binding model using ForteBio Data Analysis software (Pall). The off-rate ratios were calculated by the off-rate of antibody to that of FIT1007-12B. Lower ratio indicates slower dissociation of the antibody in comparison with the parental chimeric antibody FIT1007-12B.

T1 sequence (Q01973 30-406): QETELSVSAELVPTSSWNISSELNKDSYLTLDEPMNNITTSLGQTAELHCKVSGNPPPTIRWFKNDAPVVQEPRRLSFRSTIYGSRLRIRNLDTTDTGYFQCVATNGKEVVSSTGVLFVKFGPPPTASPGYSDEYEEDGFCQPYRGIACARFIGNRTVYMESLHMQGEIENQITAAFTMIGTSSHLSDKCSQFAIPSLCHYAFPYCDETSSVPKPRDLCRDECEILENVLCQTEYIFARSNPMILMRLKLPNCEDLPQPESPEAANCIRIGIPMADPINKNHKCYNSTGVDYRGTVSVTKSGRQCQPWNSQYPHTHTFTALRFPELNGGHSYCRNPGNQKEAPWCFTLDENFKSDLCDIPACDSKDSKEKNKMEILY

| Off-rate Ratio [%] | Binder |
| --- | --- |
| 28.5 | FIT1007-12B-5 (bispecific antibody, human IgG1, kappa, L234A L235A, ROR1xCD3 FIT-Ig, same build as FIT1007-12B-1, no linkers) chain 1: not shown chain 2: EVQLVQSGAEVKKPGSSVKVSCKASGYTFSRSWMNWVRQAPGQGLEWIGRIYPGNGDIKYNGNFKGRATITADKSTSTAYMELSSLRSEDTAVYYCAHIYYDFYYALDYWGQGTTVTVSSASTKGPSVFPLAPSSKSTSGGTAALGCLVKDYFPEPVTVSWNSGALTSGVHTFPAVLQSSGLYSLSSVVTVPSSSLGTQTYICNVNHKPSNTKVDKKVEPKSC chain 3: not shown |
| 13.6 | FIT1007-12B-7 (bispecific antibody, human IgG1, kappa, L234A L235A, ROR1xCD3 FIT-Ig, same build as FIT1007-12B-1, no linkers) chain 1: not shown chain 2: EVQLVQSGAEVKKPGSSVKVSCKASGYTFSRSWMNWVRQAPGQGLEWMGRIYPGNGDIKYNGNFKGRVTITADKSTSTAYMELSSLRSEDTAVYYCAHIYYDFYYALDYWGQGTTVTVSSASTKGPSVFPLAPSSKSTSGGTAALGCLVKDYFPEPVTVSWNSGALTSGVHTFPAVLQSSGLYSLSSVVTVPSSSLGTQTYICNVNHKPSNTKVDKKVEPKSC chain 3: not shown |
| 7.87 | FIT1007-12B-2 (bispecific antibody, human IgG1, kappa, L234A L235A, ROR1xCD3 FIT-Ig, same build as FIT1007-12B-1, no linkers) chain 1: not shown chain 2: EVQLVQSGAEVKKPGSSVKVSCKASGYTFSRSWMNWVRQAPGQGLEWIGRIYPGNGDIKYNGNFKGRATITADKSTSTAYMELSSLRSEDTAVYYCAHIYYDFYYALDYWGQGTTVTVSSASTKGPSVFPLAPSSKSTSGGTAALGCLVKDYFPEPVTVSWNSGALTSGVHTFPAVLQSSGLYSLSSVVTVPSSSLGTQTYICNVNHKPSNTKVDKKVEPKSC chain 3: not shown |
| 11.9 | FIT1007-12B-3 (bispecific antibody, human IgG1, kappa, L234A L235A, ROR1xCD3 FIT-Ig, same build as FIT1007-12B-1, no linkers) chain 1: not shown chain 2: EVQLVQSGAEVKKPGSSVKVSCKASGYTFSRSWMNWVKQAPGQGLEWIGRIYPGNGDIKYNGNFKGKATITADKSTSTAYMELSSLRSEDTAVYYCAHIYYDFYYALDYWGQGTTVTVSSASTKGPSVFPLAPSSKSTSGGTAALGCLVKDYFPEPVTVSWNSGALTSGVHTFPAVLQSSGLYSLSSVVTVPSSSLGTQTYICNVNHKPSNTKVDKKVEPKSC chain 3: not shown |
| 15.4 | FIT1007-12B-8 (bispecific antibody, human IgG1, kappa, L234A L235A, ROR1xCD3 FIT-Ig, same build as FIT1007-12B-1, no linkers) chain 1: not shown chain 2: EVQLVQSGAEVKKPGSSVKVSCKASGYTFSRSWMNWVRQAPGQGLEWIGRIYPGNGDIKYNGNFKGRATITADKSTSTAYMELSSLRSEDTAVYYCAHIYYDFYYALDYWGQGTTVTVSSASTKGPSVFPLAPSSKSTSGGTAALGCLVKDYFPEPVTVSWNSGALTSGVHTFPAVLQSSGLYSLSSVVTVPSSSLGTQTYICNVNHKPSNTKVDKKVEPKSC chain 3: not shown |
| 25.8 | FIT1007-12B-6 (bispecific antibody, human IgG1, kappa, L234A L235A, ROR1xCD3 FIT-Ig, same build as FIT1007-12B-1, no linkers) chain 1: not shown chain 2: EVQLVQSGAEVKKPGSSVKVSCKASGYTFSRSWMNWVKQAPGQGLEWIGRIYPGNGDIKYNGNFKGKATITADKSTSTAYMELSSLRSEDTAVYYCAHIYYDFYYALDYWGQGTTVTVSSASTKGPSVFPLAPSSKSTSGGTAALGCLVKDYFPEPVTVSWNSGALTSGVHTFPAVLQSSGLYSLSSVVTVPSSSLGTQTYICNVNHKPSNTKVDKKVEPKSC chain 3: not shown |
| 12 | FIT1007-12B-9 (bispecific antibody, human IgG1, kappa, L234A L235A, ROR1xCD3 FIT-Ig, same build as FIT1007-12B-1, no linkers) chain 1: not shown chain 2: EVQLVQSGAEVKKPGSSVKVSCKASGYTFSRSWMNWVKQAPGQGLEWIGRIYPGNGDIKYNGNFKGKATITADKSTSTAYMELSSLRSEDTAVYYCAHIYYDFYYALDYWGQGTTVTVSSASTKGPSVFPLAPSSKSTSGGTAALGCLVKDYFPEPVTVSWNSGALTSGVHTFPAVLQSSGLYSLSSVVTVPSSSLGTQTYICNVNHKPSNTKVDKKVEPKSC chain 3: not shown |
| 5.25 | FIT1007-12B-1 (bispecific antibody, human IgG1, kappa, L234A L235A, ROR1xCD3 FIT-Ig, chain #1 VL(ROR1)-CL-VH(CD3)-CH1-hinge-CH2-CH3, chain #2 VH(ROR1)-CH1, chain #3 VL(CD3)-CL, no linkers) chain 1: not shown chain 2: EVQLVQSGAEVKKPGSSVKVSCKASGYTFSRSWMNWVRQAPGQGLEWMGRIYPGNGDIKYNGNFKGRVTITADKSTSTAYMELSSLRSEDTAVYYCAHIYYDFYYALDYWGQGTTVTVSSASTKGPSVFPLAPSSKSTSGGTAALGCLVKDYFPEPVTVSWNSGALTSGVHTFPAVLQSSGLYSLSSVVTVPSSSLGTQTYICNVNHKPSNTKVDKKVEPKSC chain 3: not shown |
| 35.9 | FIT1007-12B-4 (bispecific antibody, human IgG1, kappa, L234A L235A, ROR1xCD3 FIT-Ig, same build as FIT1007-12B-1, no linkers) chain 1: not shown chain 2: EVQLVQSGAEVKKPGSSVKVSCKASGYTFSRSWMNWVRQAPGQGLEWMGRIYPGNGDIKYNGNFKGRVTITADKSTSTAYMELSSLRSEDTAVYYCAHIYYDFYYALDYWGQGTTVTVSSASTKGPSVFPLAPSSKSTSGGTAALGCLVKDYFPEPVTVSWNSGALTSGVHTFPAVLQSSGLYSLSSVVTVPSSSLGTQTYICNVNHKPSNTKVDKKVEPKSC chain 3: not shown |
